Laboratory results: patent publication US20240383980A1 (VITRUVIAE, published 2024)
Values belong to the binder of their own block, whether it stands above or below them.

Key:
recombinant human CD25 [1] = biological target: T1, recombinant human CD25 (human, UniProt P01589 22-213, limits assumed); experiment: SPR; human CD25 immobilized on CM5 chip (legend of FIG. 8b)
T1 construct: also called IL-2 receptor subunit a
T1 sequence (looked up): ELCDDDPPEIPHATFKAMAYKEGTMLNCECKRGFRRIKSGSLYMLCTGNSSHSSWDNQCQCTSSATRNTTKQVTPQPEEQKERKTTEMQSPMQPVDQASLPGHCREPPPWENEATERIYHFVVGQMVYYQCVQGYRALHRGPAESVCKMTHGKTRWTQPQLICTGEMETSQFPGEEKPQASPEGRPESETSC

recombinant human CD25 [2] = biological target: T1, recombinant human CD25; experiment: SPR, Biacore T200; human CD25 immobilized on CM5 chip; 1:1 fit
recombinant human CD25 [3] = biological target: T1, recombinant human CD25; experiment: SPR (Biacore T200), human CD25 immobilized on CM5 chip, VP101 injected at 3.125-100 nM, 1:1 fit
recombinant human CD25 [4] = biological target: T1, recombinant human CD25; experiment: SPR; human CD25 immobilized on CM5 chip (legend of FIG. 8a)
recombinant human CD25 [5] = biological target: T1, recombinant human CD25; experiment: SPR (Biacore T200), human CD25 immobilized on CM5 chip, VP100 injected at 3.125-100 nM, 1:1 fit
[6] = biological target: T2, recombinant cynomolgus CD3de (delta epsilon subunits) (cynomolgus, UniProt Q95LI8 22-105; Q95LI5 22-117); experiment: SPR, Biacore T200; cynomolgus CD3de immobilized on CM5 chip; 1:1 fit
Protocol: (§1) The binding affinities of VP103 (chimeric alpaca anti-CD3 VHH F10-human IgG4) and VP104 (Humanized F10A VHH (C55A)-IgG4) for recombinant human CD3de (delta epsilon subunits) and recombinant cynomolgus CD3de (delta epsilon subunits) were assessed by SPR on a Biacore T200 (GE Healthcare). FIGS. 13a and 13b show the SPR sensorgrams for VP103 to human CD3de and cynomolgus CD3de immobilized onto the surface of CM5 sensor chip. FIGS. 14a and 14b show the SPR sensorgrams for VP104 to human CD3de and cynomolgus CD3de immobilized onto the surface of CM5 sensor chip. The data were fit with a 1:1 fitting model. […] These constructs can also be paired with anti-CD25 VP008, which is based on basiliximab, which is known to cross-react with cynomolgus CD25.

[7] = biological target: T3, recombinant human CD3de (Delta epsilon fusion) (human, UniProt P04234 22-105; P07766 23-126); experiment: SPR, Biacore T200; human CD3de immobilized on CM5 chip; 1:1 fit
T3 construct: It is written here as two chains; also called recombinant human CD3de (delta epsilon subunits)
Protocol: as §1

[8] = biological target: T2, recombinant cynomolgus CD3de (delta …); experiment: SPR (Biacore T200), cynomolgus CD3de immobilized on CM5 chip, VP104 injected at 3.125-100 nM, 1:1 fit
Protocol: as §1

[9] = biological target: T3, recombinant human CD3de (Delta epsilon …); experiment: SPR (Biacore T200), human CD3de immobilized on CM5 chip, VP104 injected at 3.125-100 nM, 1:1 fit
Protocol: as §1

recombinant human CD25 [10] = biological target: T1, recombinant human CD25; experiment: SPR, Biacore T200; human CD25 immobilized on CM5 chip
[11] = biological target: T3, recombinant human CD3de (Delta epsilon …); experiment: SPR, Biacore T200; human CD3de immobilized on CM5 chip
[12] = biological target: T3, recombinant human CD3de (Delta epsilon …); experiment: SPR (Biacore T200), human CD3de immobilized on CM5 chip, VP103 injected at 3.125-100 nM, 1:1 fit
Protocol: as §1

[13] = biological target: T2, recombinant cynomolgus CD3de (delta …); experiment: SPR (Biacore T200), cynomolgus CD3de immobilized on CM5 chip, VP103 injected at 3.125-100 nM, 1:1 fit
Protocol: as §1

T3 sequence (P04234 22-105, stated change not applied, chain 1 of 2): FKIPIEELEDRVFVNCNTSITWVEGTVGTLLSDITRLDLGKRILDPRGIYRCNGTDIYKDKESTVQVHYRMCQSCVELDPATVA
T3 sequence (P07766 23-126, stated change not applied, chain 2 of 2): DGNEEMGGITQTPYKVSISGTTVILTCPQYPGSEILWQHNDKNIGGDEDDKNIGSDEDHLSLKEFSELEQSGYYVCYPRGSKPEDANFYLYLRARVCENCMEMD
T2 sequence (Q95LI8 22-105, stated change not applied, chain 1 of 2): as the sequence (P04234 22-105, stated change not applied, chain 1 of 2) above, with I5V, N15K, I20V, S32T, D33N, I34N, T64A, S74N, V83L counted along it
T2 sequence (Q95LI5 22-117, stated change not applied, chain 2 of 2): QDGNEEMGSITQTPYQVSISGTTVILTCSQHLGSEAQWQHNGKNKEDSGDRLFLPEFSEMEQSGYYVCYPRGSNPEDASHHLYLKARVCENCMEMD

B2: VP100 (ch7G7-IgG4) (antibody, V domains shown)
VH: EVQLVESGGDLVQPRGSLKLSCAASGFTFSSYGMSWVRQTPDKRLELVATINGYGDTTYYPDSVKGRFTISRDNAKNTLYLQMSSLKSEDTAMYFCARDRDYGNSYYYALDYWGQGTSVTVSS
VL: QIVLSQSPAILSASPGERVTMTCRASSSVSFMHWLQQKPGSSPKPWIYATSNLASGVSARFSGSGSGTSYSLTITRVEAEDAATYYCQQWSSNPPAFGGGTKLEIKR
notes: Chimeric 7G7 on human IgG4
Kd (recombinant human CD25 [4]): 3.8 nM | Kd (recombinant human CD25 [5]): 0.009 nM | koff (recombinant human CD25 [5]): 3.56e-06 s⁻¹ | kon (recombinant human CD25 [5]): 392000 M⁻¹ s⁻¹

B4: VP008 (VCD25-L2H2 with V-IGG4-B) (antibody, human IgG4 S228P, kappa, F234A L235A, V domains shown)
VH: QVQLVQSGAEVKKPGASVKVSCKASGYSFTRYWMHWVRQPPGQRLEWMGAIYPGNSDTSYSQKFEGRVTITADTSASTAYMELSSLRSEDTAVYYCSRDYGYYFDFWGQGTTVTVSS
VL: EIVLTQSPDFQSVTPKEKVTITCRASSSRSYMQWYQQKPDQSPKRLIYDTSKSASGVPSRFSGSGSGTDYTLTINSLEAEDAATYYCHQRSSYTFGQGTKLEIKR
notes: 4 chain IgG format (huVIT-101), IgG4; also called huBasiliximab H2L2; huVIT-101
Kd (recombinant human CD25 [10]): 1.2 nM

B5: VP002 (huOKT3 VCD3-L3H3 with V-IGG4-A) (antibody, human IgG4 S228P, kappa, F234A L235A, V domains shown)
VH: QVQLVQSGAEVKKPGASVKVSCKASGYTFTRYTMHWVRQSPGQGLEWMGYINPSRGYTNYNQKFQGRVTMTTDKSTSTAYMELSSLRSEDTAVYYCARYYDDHYSLDYWGQGTTVTVSS
VL: EIQLTQSPATLSLSPGERATLSCRASSSVSYMNWYQQKPGQAPRRWIYDTSKLATGIPARFSGSGSGTDYTLTISSLEPEDAAVYYCQQWSSNPFTFGQGTKLEIKR
notes: 4 chain IgG format (huVIT-100), IgG4; also called huOKT3 H3L3; huVIT-100
Kd [11]: 12.4 nM

B7: VP001 (Teplizumab H:C114S with V-IGG4-A) (antibody, human IgG4 S228P, kappa, F234A L235A, V domains shown)
VH: QVQLVQSGGGVVQPGRSLRLSCKASGYTFTRYTMHWVRQAPGKGLEWIGYINPSRGYTNYNQKVKDRFTISRDNSKNTAFLQMDSLRPEDTGVYFCARYYDDHYSLDYWGQGTPVTVSS
VL: DIQMTQSPSSLSASVGDRVTITCSASSSVSYMNWYQQTPGKAPKRWIYDTSKLASGVPSRFSGSGSGTDYTFTISSLQPEDIATYYCQQWSSNPFTFGQGTKLQITR
notes: 4 chain IgG format (chVIT-100), IgG4 Fc with S228P, F234A, L235A, K322A; also called chVIT-100
Kd [11]: 5.2 nM

The next lines start with the values.

Kd (recombinant human CD25 [1]): < 1 nM | Kd (recombinant human CD25 [2]): < 0.001 nM | Kd (recombinant human CD25 [3]): 0.001 nM | koff (recombinant human CD25 [3]): 1.64e-07 s⁻¹ | kon (recombinant human CD25 [3]): 126000 M⁻¹ s⁻¹
B1: VP101 (hu7G7-IgG4) (antibody, V domains shown)
VH: EVQLVESGGGLVQPGGSLRLSCAASGFTFSSYGMSWVRQAPGKRLELVATINGYGDTTYYPDSVKGRFTISRDNAKNTLYLQMNSLRAEDTAVYYCARDRDYGNSYYYALDYWGQGTLVTVSS
VL: EIVLTQSPATLSLSPGERATLSCRASSSVSFMHWLQQKPGQAPKPLIYATSNLASGIPARFSGSGSGTDYTLTISSLEPEDFAVYYCQQWSSNPPAFGGGTKVEIKR
notes: Humanized 7G7 on human IgG4

Kd [6]: 13.3 nM | Kd [7]: 14.2 nM | koff [8]: 0.0516 s⁻¹ | kon [8]: 3.89e+06 M⁻¹ s⁻¹ | koff [9]: 0.0651 s⁻¹ | kon [9]: 4.58e+06 M⁻¹ s⁻¹
B3: VP104 (Humanized F10A VHH (C55A)-IgG4) (Fc fusion)
chain: EVQLLESGGGLVQPGGSLRLSCAASGFTLDDYAIGWVRQAPGKGREGVSAIRRSDGHTYYADSVKGRFTISSDNSKNTVYLQMNSLRAEDTAVYYCAAGTGWGRYFYAGMDYWGQGTLVTVSSGGGGSGGGGSGGGGSKYGPPCPPCPAPEAAGGPSVFLFPPKPKDTLMISRTPEVTCVVVDVSQEDPEVQFNWYVDGVEVHNAKTKPREEQFNSTYRVVSVLTVLHQDWLNGKEYKCAVSNKGLPSSIEKTISKAKGQPREPQVYTLPPSQEEMTKNQVSLTCLVKGFYPSDIAVEWESNGQPENNYKTTPPVLDSDGSFFLYSRLTVDKSRWQEGNVFSCSVMHEALHNHYTQKSLSLSLGK
notes: also called humanized Anti-CD3 nanobody F10 with free Cys removed and with V-IGG4-A-Fc

Kd [6]: 2.8 nM | koff [12]: 0.000972 s⁻¹ | kon [12]: 261000 M⁻¹ s⁻¹ | Kd [7]: 3.7 nM | koff [13]: 0.00112 s⁻¹ | kon [13]: 406000 M⁻¹ s⁻¹
B6: VP103 (chimeric alpaca anti-CD3 VHH F10-human IgG4) (Fc fusion)
chain: QVQLQESGGGLVQAGGSLTLSCAASGFTLDDYAIGWFRQAPGKEREGVSCIRRSDGHTYSADSVKGRFTISSDNAKNTVYLQMNNLKPEDTAVYYCAAGTGWGRYFYAGMDYWGKGTQVTVSSGGGGSGGGGSGGGGSKYGPPCPPCPAPEAAGGPSVFLFPPKPKDTLMISRTPEVTCVVVDVSQEDPEVQFNWYVDGVEVHNAKTKPREEQFNSTYRVVSVLTVLHQDWLNGKEYKCAVSNKGLPSSIEKTISKAKGQPREPQVYTLPPSQEEMTKNQVSLTCLVKGFYPSDIAVEWESNGQPENNYKTTPPVLDSDGSFFLYSRLTVDKSRWQEGNVFSCSVMHEALHNHYTQKSLSLSLGK
notes: VHH-linker-IgG4 Fc chain; also called Alpaca Anti-CD3 nanobody F10 with V-IGG4-A-Fc
